In US20250277059A1, “ANTIBODY USED TO TREAT CORONAVIRUS INFECTION” (priority 2022, published 2025):

T1: TMPRSS-11D (human, UniProt O60235)
T1 sequence (single chain, looked up): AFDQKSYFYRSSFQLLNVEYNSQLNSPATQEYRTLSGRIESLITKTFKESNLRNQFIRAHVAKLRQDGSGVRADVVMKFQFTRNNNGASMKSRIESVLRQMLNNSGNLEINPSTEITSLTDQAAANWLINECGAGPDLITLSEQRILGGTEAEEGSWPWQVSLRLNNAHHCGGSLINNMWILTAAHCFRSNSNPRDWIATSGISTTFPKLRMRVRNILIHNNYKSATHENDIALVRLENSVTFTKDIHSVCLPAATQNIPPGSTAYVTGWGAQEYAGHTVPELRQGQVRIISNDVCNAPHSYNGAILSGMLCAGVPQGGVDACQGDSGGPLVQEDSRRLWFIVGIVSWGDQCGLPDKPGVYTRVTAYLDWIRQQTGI

T2: TMPRSS-13 (human, UniProt Q9BYE2)
T2 sequence (single chain, looked up): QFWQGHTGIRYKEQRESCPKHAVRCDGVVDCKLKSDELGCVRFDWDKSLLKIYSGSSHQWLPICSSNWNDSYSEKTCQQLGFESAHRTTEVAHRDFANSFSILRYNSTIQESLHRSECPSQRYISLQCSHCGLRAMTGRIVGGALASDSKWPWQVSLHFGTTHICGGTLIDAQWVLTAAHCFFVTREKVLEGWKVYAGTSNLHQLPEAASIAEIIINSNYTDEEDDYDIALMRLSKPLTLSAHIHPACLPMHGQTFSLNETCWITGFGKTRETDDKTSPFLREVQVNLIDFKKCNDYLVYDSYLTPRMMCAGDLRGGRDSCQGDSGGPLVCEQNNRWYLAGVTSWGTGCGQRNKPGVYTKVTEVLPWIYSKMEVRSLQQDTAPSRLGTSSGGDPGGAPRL

T3: TMPRSS-11E (human, UniProt Q9UL52)
T3 sequence (single chain, looked up): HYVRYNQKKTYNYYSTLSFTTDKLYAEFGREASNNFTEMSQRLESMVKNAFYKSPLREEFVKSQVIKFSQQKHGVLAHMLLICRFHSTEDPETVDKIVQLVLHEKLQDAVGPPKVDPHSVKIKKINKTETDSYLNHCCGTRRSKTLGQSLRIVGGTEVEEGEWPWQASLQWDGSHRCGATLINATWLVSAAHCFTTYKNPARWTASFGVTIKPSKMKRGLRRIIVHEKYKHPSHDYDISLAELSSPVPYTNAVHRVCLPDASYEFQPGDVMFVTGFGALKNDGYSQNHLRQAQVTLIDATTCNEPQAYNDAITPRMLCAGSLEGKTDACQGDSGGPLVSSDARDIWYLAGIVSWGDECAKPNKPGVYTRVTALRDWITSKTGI


Tests used:
[1] = biological target: T4, Human TMPRSS2 expressed on cells (human, UniProt O15393 1-492); experiment: cell-based or functional assay
[2] = biological target: T5, Human TMPRSS2 recombinant protein, extracellular region (N-terminal His tag, C-terminal Strep-tag II) (human, UniProt O15393 106-492); experiment: SPR (BIAcore), captured mAb, soluble human TMPRSS2 extracellular region
T5 construct: also called Human TMPRSS2 recombinant proteins; extracellular region of human TMPRSS2

[3] = biological target: T4, Human TMPRSS2 expressed on cells; experiment: cell-based or functional assay; remark: listed apart in the source
[4] = biological target: T5, Human TMPRSS2 recombinant protein, …; experiment: SPR (BIAcore); rounded repeat of Table 1
[5] = biological target: Cynomolgus monkey TMPRSS2 expressed on cells (cynomolgus monkey); experiment: flow cytometry, Daudi transfectant
[6] = biological target: T6, Mouse TMPRSS2 expressed on cells (mouse, UniProt Q9JIQ8 1-490); experiment: flow cytometry, Daudi transfectant
[7] = biological target: T4, Human TMPRSS2 expressed on cells; experiment: flow cytometry, Daudi transfectant
TMPRSS-11F = TMPRSS-11F (human, UniProt Q6ZWK6); experiment: ELISA, Strep-tagged protein on streptavidin plate
TMPRSS-11D = biological target: T1, TMPRSS-11D; experiment: ELISA, Strep-tagged protein on streptavidin plate
TMPRSS-13 = biological target: T2, TMPRSS-13; experiment: ELISA, Strep-tagged protein on streptavidin plate
TMPRSS-11E = biological target: T3, TMPRSS-11E; experiment: ELISA, Strep-tagged protein on streptavidin plate
[8] = biological target: T6, Mouse TMPRSS2 expressed on cells; experiment: flow cytometry, Daudi transfectant; remark: listed apart in the source
human TMPRSS2 [9] = biological target: T7, human TMPRSS2 (Homo sapiens, UniProt O15393); experiment: Competitive inhibition between anti-TMPRSS2 mAbs (flow cytometry); format: binding; settings: FIG. 3C
Target sequence in this assay (O15393 whole entry): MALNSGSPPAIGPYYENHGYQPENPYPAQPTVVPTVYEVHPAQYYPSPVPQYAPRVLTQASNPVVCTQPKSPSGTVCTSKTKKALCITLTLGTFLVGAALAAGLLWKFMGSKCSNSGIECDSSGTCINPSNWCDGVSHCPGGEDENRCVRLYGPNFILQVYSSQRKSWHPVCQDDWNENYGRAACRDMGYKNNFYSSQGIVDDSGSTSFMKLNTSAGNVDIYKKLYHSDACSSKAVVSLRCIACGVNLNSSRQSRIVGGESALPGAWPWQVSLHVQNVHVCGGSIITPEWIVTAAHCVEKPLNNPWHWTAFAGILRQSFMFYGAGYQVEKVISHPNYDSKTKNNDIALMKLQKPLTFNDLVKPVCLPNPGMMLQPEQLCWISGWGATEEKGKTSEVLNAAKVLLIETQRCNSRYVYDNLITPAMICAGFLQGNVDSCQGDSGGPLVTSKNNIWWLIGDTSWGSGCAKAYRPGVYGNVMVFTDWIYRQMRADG

human TMPRSS2 [10] = biological target: T7, human TMPRSS2; experiment: BIACore binding assay of anti-TMPRSS2 antibodies; settings: Table 1, mouse mAbs, 25° C.
Target sequence in this assay (O15393 106-492 limits assumed): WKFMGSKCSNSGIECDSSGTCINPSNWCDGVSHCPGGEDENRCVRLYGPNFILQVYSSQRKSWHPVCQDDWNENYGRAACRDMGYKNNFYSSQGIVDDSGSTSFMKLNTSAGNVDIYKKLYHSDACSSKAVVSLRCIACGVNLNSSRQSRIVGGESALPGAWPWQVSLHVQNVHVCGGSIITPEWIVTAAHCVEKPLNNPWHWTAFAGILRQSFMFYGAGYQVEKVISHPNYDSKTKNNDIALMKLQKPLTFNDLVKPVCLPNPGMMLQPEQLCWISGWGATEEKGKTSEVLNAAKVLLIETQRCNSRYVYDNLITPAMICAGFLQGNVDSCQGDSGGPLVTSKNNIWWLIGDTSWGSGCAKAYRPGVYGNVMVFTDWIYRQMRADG

[11] = tested on: TMPRSS2 of non-human animal species; format: binding; settings: Table 3; species whose TMPRSS2 is bound
[12] = biological target: T4, Human TMPRSS2 expressed on cells
[13] = biological target: T5, Human TMPRSS2 recombinant protein, …; experiment: SPR (BIACore)

T5 sequence (O15393 other isoform, or with tags, fused parts or gaps limits assumed): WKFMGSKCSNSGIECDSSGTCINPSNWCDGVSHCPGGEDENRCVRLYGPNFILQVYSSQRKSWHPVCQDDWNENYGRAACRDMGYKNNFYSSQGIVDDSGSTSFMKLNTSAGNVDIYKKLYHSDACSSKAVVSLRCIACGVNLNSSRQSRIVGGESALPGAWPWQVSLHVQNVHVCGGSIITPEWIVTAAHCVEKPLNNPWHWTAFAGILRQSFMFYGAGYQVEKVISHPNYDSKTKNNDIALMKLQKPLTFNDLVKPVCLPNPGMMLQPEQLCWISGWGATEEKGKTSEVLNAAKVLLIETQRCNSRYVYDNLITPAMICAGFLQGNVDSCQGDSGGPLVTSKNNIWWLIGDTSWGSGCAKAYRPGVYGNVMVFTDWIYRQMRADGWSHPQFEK
Sequence of TMPRSS-11F (Q6ZWK6 54-438 limits assumed): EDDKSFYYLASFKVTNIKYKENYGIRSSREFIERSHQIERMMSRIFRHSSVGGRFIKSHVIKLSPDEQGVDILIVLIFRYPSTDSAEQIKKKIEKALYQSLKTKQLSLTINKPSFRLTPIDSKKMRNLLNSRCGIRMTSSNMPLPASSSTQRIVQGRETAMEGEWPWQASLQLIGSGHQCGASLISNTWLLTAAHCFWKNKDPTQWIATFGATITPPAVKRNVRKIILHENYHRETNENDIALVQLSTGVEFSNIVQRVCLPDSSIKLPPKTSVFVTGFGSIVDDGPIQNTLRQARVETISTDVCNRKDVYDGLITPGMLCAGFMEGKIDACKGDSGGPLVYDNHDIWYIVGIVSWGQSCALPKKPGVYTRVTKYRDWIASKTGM
T4 sequence (O15393 whole entry): as the sequence (O15393 whole entry) above
T6 sequence (Q9JIQ8 whole entry): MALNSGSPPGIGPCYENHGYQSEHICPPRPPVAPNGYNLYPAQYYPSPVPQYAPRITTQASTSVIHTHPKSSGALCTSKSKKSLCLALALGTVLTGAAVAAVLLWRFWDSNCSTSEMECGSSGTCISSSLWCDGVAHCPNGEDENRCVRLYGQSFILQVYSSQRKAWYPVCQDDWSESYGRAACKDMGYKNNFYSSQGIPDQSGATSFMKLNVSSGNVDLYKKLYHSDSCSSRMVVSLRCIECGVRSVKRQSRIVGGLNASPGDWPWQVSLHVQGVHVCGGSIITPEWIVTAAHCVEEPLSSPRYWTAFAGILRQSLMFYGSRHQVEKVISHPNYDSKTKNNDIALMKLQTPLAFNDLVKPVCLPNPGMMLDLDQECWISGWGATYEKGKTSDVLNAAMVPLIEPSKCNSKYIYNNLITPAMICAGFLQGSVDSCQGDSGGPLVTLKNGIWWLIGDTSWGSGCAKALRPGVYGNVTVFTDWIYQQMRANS

Row | Molecule | Kd [2] | koff [2] | kon [2] | Activity: Calu-3 Inhibiton [3] | Kd [4] | binding result (TMPRSS-11F) | binding result (TMPRSS-11D) | binding result (TMPRSS-13) | binding result (TMPRSS-11E) | further results
1 | 2020_12 antibody (antibody, V domains shown) VH: QVQLQQPGAELAKPGASVKLSCKASGYTFTSYWMHWVKQRPGQGLEWIGLIPPNSGSSNYNEKFKSKATLTVDKSSRTAYMQLSSLTSEDSAVYYCARWDYGSSYGYFDVWGTGTTVTVSS VL: DIVLTQSPASLAVSLGQRATISCRASESVSTSGYSYMHWYQQKPGQPPKLLIYLASNLESGVPVRFSGSGSGTDFTLNIHPVEEEDAATYYCQHSRELPPTFGAGTKLELK | 2.69 nM | 0.00176 s⁻¹ | 654000 M⁻¹ s⁻¹ | 66 | 2.7 nM | no binding (tested: 10 µg/mL) | no binding (tested: 10 µg/mL) | no binding (tested: 10 µg/mL) | no binding (tested: 10 µg/mL) | IC90, First run; live SARS-CoV-2 infection of Calu-3 cells [1]: 0.23 µg/mL; IC90, Second run; live SARS-CoV-2 infection of Calu-3 cells [1]: 0.13 µg/mL; Q2 (percent of cells GFP+ and stained) [5]: 0.88; Q2 (percent of cells GFP+ and stained) [6]: 48.5; Q2 (percent of cells GFP+ and stained) [7]: 99.9
2 | 2228_15 antibody (antibody, V domains shown) VH: QVQLQQSGPELVKPGTSVKISCKASGYTFTDYYINWVKQRPGQGLEWIGWIFPGSGSSYYNAIFKGKATLTVDTSSNTAHMSLSSLTSDDSAVYFCARGDFGNFGGFFTYWGQGTLVTVSA VL: DVVVTQSPASLAVSLGQRATISCRASKSVSTSGYSFMHWYQQKPGQPPKLLIYLASNLESGVPARFSGSGSGTDFILNIHPVEEEDAATYYCQHSRELPLTFGAGTKLELK | 8.41 nM | – | – | – | 8.4 nM | no binding (tested: 10 µg/mL) | no binding (tested: 10 µg/mL) | no binding (tested: 10 µg/mL) | no binding (tested: 10 µg/mL) | –
3 | 752_1 antibody (antibody, V domains shown) VH: QVQLQQSGAELARPGASVKLSCKASGYTFTSCGISWVKQRTGQGLEWIGEIYPRGGNTYYNEKFKGKATLTADKSSSTAYMELRSLTSEDSAVYFCARENGNYDPLFAYWGQGTLVTVSA VL: DIQMTQSPSSLSASLGGKVTITCKASQDINKYIAWYQHKPGKGPRLLIHYTSTLQPGIPSRFSGSGSGRDYSFSIYNLEPEDIATYYCLQYYNLWTFGGGTKLEIK | – | – | – | – | – | no binding (tested: 10 µg/mL) | no binding (tested: 10 µg/mL) | no binding (tested: 10 µg/mL) | no binding (tested: 10 µg/mL) | –
4 | 2114_16 antibody (antibody, V domains shown, also called 2114 antibody) VH: EVQLQQSGPELVKPGASVKISCKASGYTFTDYYMNWVKRRHGKSLEWIGNINPNNGGTSYNQKFKGKATLTVDKSSSTAYMELRSLTSEDSVVYYCAREGDLFPFAYWGQGTLVTVSA VL: QAVVTQESALTTSPGETVTLTCRSSIGTVTTSNFANWVQEKPDHLFTGLIGASNNRAPGVPARFSGSLIGDKAALTITGAQTEDEAIYFCALWFSNHWVFGGGTKLTVL | 1.04 nM | 0.000591 s⁻¹ | 570000 M⁻¹ s⁻¹ | 47.6 | 1 nM | – | – | – | – | IC90, First run; live SARS-CoV-2 infection of Calu-3 cells [1]: 1.5 µg/mL; IC90, Second run; live SARS-CoV-2 infection of Calu-3 cells [1]: 3.4 µg/mL; binding result [8]: no binding (tested: 1 µg/mL)
5 | 2114_16: mouse anti-human TMPRSS2 monoclonal antibody, IgG2c λ; VH SEQ ID NO: 106, VL SEQ ID NO: 107 (antibody, V domains shown, mouse IgG2c lambda constant regions; 2114_16 VH; 2114_16 VL) VH: EVQLQQSGPELVKPGASVKISCKASGYTFTDYYMNWVKRRHGKSLEWIGNINPNNGGTSYNQKFKGKATLTVDKSSSTAYMELRSLTSEDSVVYYCAREGDLFPFAYWGQGTLVTVSA VL: QAVVTQESALTTSPGETVTLTCRSSIGTVTTSNFANWVQEKPDHLFTGLIGASNNRAPGVPARFSGSLIGDKAALTITGAQTEDEAIYFCALWFSNHWVFGGGTKLTVL | – | – | – | – | – | – | – | – | – | competition with 1831_15 antibody for binding to human TMPRSS2 (human TMPRSS2 [9]): weakly competed; ka (human TMPRSS2 [10]): 570000 M⁻¹ s⁻¹; kd (human TMPRSS2 [10]): 0.000591 s⁻¹
6 | 1831_15 antibody (antibody, V domains shown) VH: QVQLQQPGAELVKPGASVKLSCKASGYSFTTYWMHWVRQRPGQGLEWIGIIHPNSGTTNYNEKFKSKASLTVDKSSSTAYMQLSSLTSEDSAVYYCARLLWDYFDYWGQGTTLTVSS VL: DIVMSQSPSSLAVSAGEKVTMSCKSSQSLLNSRTRKNFLAWYQQKPGQSPKLLIYWASTRESGVPDRFTGSGSGTDFTLTISSVQAEDLAVYYCKQSYNLYTFGGGTKLEIK | 0.418 nM | 0.000236 s⁻¹ | 563000 M⁻¹ s⁻¹ | 44.8 | 0.42 nM | – | – | – | – | binding result [8]: no binding (tested: 1 µg/mL)
7 | 1831_15: mouse anti-human TMPRSS2 monoclonal antibody, IgG2b κ; VH SEQ ID NO: 98, VL SEQ ID NO: 99 (antibody, V domains shown, mouse IgG2b kappa constant regions; 1831_15 VH; 1831_15 VL) VH: QVQLQQPGAELVKPGASVKLSCKASGYSFTTYWMHWVRQRPGQGLEWIGIIHPNSGTTNYNEKFKSKASLTVDKSSSTAYMQLSSLTSEDSAVYYCARLLWDYFDYWGQGTTLTVSS VL: DIVMSQSPSSLAVSAGEKVTMSCKSSQSLLNSRTRKNFLAWYQQKPGQSPKLLIYWASTRESGVPDRFTGSGSGTDFTLTISSVQAEDLAVYYCKQSYNLYTFGGGTKLEIK | – | – | – | – | – | – | – | – | – | ka (human TMPRSS2 [10]): 563000 M⁻¹ s⁻¹; kd (human TMPRSS2 [10]): 0.000236 s⁻¹; Cross-reactivity [11]: Cynomolgus monkey
8 | humanized 2228-15 IgG4 (S108P) prototype #4 (antibody, V domains shown, also called humanized #4; hu #4) VH: EIQLVQSGAEVKKPGSSVKVSCKASGYTFTDYYINWMRQAPGQGLEWIGWIFPGSGSSYYNAIFKGRATLTVDTSTNTAYMELSSLRSEDTAFYFCARGDFGNFGGFFTYWGQGTLVTVSS VL: DIVMTQSPDSLAVSLGERATINCRASKSVSTSGYSFMHWYQQKPGQPPKLLIYLASNLESGVPDRFSGSGSGTDFTLTIRPLQAEDVAVYYCQHSRELPLTFGQGTKLEIK | – | – | – | – | – | – | – | – | – | APC median at 3 µg/ml [12]: 1990; koff [13]: 0.0001 s⁻¹; kon [13]: 1.44e+06 M⁻¹ s⁻¹
